Measured values published in PMC10919079, “Biosynthesis of UDP-α-N-Acetyl-D-mannosaminuronic Acid and CMP-β-N-Acetyl-D-neuraminic Acid for the Capsular Polysaccharides of Campylobacter jejuni” (Biochemistry, 2024).

Key:
[1] = system: CC(=O)N[C@H]1[C@@H](OP(=O)(O)OP(=O)(O)OC[C@H]2O[C@@H](n3ccc(=O)[nH]c3=O)[C@H](O)[C@@H]2O)O[C@H](CO)[C@@H](O)[C@@H]1O; experiment: purified protein; settings: pH 7.5, 25 °C
[2] = system: CC(=O)N[C@@H]1[C@@H](OP(=O)(O)OP(=O)(O)OC[C@H]2O[C@@H](n3ccc(=O)[nH]c3=O)[C@H](O)[C@@H]2O)O[C@H](CO)[C@@H](O)[C@@H]1O; experiment: purified protein; settings: pH 7.5, 25 °C, same buffer, 2.0 mM NAD+, 2.0 mM DTT, UDP-ManNAc generated in situ from UDP-GlcNAc with excess C2-epimerase (10 μM)
[3] = target: T1, CMP-Neu5Ac synthase (HS6.5) (Campylobacter jejuni, UniProt P0DY07); experiment: anion exchange chromatography, NMR and MS of CMP-Neu5Ac product; assay type: biochemical; settings: pH 7.5; Neu5Ac co-substrate, MgCl2, pyrophosphatase
T1 construct: full-length synthetic codon-optimised gene, N-terminal His6 tag kept, pET-28a(+), E. coli BL21(DE3)
T1 sequence (P0DY07 whole entry): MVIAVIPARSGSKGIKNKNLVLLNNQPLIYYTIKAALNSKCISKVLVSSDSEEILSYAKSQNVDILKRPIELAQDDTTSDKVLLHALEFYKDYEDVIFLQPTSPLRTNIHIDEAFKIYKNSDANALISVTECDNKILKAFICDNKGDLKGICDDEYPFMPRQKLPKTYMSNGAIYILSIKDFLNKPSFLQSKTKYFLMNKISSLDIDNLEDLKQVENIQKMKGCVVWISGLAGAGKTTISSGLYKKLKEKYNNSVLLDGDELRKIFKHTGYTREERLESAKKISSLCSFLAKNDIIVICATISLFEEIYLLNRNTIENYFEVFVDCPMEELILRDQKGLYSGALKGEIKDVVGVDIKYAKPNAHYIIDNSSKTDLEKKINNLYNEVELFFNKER

[4] = 50 mM HEPES, 250 mM KCl, 5% glycerol, excess C6-dehydrogenase (10 μM), 2.0 mM NAD+, 2.0 mM DTT
[5] = same buffer, 10 mM MgCl2, 2.0 mM PEP, 300 μM NADH

Question: Which Km [1, 4] does the source give for “nonhydrolyzing UDP-GlcNAc C2-epimerase (HS11.17) (Campylobacter jejuni)” here?
Answer: 1370 ± 50 µM

Question: And the kcat [1, 4]?
Answer: 5.7 ± 0.2 s⁻¹

Question: What about the kcat/Km [1, 4] of the same molecule?
Answer: 4200 ± 200 M⁻¹ s⁻¹

Question: What does the source list for “hydrolyzing UDP-GlcNAc C2-epimerase (HS6.10) (Campylobacter jejuni subsp. jejuni 81116)”?
Answer: Km [1, 5]: 160 ± 10 µM; kcat [1, 5]: 3.1 ± 0.1 s⁻¹; kcat/Km [1, 5]: 19900 ± 1000 M⁻¹ s⁻¹

Question: How did the Km [2] turn out when “UDP-ManNAc C6-dehydrogenase (HS11.16) (Campylobacter jejuni)” was run?
Answer: 22 ± 1 µM

Question: And the kcat [2]?
Answer: 0.2 ± 0.01 s⁻¹

Question: And the kcat/Km [2]?
Answer: 8700 ± 400 M⁻¹ s⁻¹

Question: For `Nc1ccn([C@@H]2O[C@H](COP(=O)(O)OP(=O)(O)OP(=O)(O)O)[C@@H](O)[C@H]2O)c(=O)n1` [CTP], which “anion exchange chromatography, NMR and MS of CMP-Neu5Ac product” value [3] is on record?
Answer: CMP-Neu5Ac synthase using CTP as the nucleotide donor
